This note sets out measurements from the RNAGym collection of RNA variant scans (doi:10.7554/elife.80360).

First the molecules themselves.
B1: CPEB3 Ribozyme (parent)
chain: GGGGGCCACAGCAGAAGCGUUCACGUCGCGGCCCCUGUCAGAUUCUGGUGAAUCUGCGAAUUCUGCUGU

In this data set the parent is B1. Description: self-cleavage, relative activity (ratio to wild type); higher = more cleavage; co-transcriptional.
For the variant C29A G65U, the self-cleavage amounted to 0.25. With C29A G65A, the self-cleavage is 0.371.

In the case of C29A G65C, the self-cleavage amounted to 0.392.

As to C29A G47U, the self-cleavage was determined as 0.817. Regarding C29A G47C, the self-cleavage is 0.716. For G28U A59G the value was 0.23.

Consider G28U A59U, for which the self-cleavage stood at 0.16. As to G28A G50A, the self-cleavage was found to be 0.195. As for G28A G50U, the self-cleavage was 0.159. Turning to C29A U53C, the self-cleavage amounted to 0.356. For C29A U53G, the self-cleavage was determined as 0.454. Consider C29A U53A, for which the self-cleavage came to 0.46. The figure for G28U G30C is 0.166.

In the case of G28U G30U, the self-cleavage was found to be 0.183. On to G28U G30A, for which the self-cleavage worked out at 0.14.

Consider G28A A40G, for which the self-cleavage stood at 0.214. Take G28A A40U: the self-cleavage was 0.167. Regarding C29A U43A, the self-cleavage was determined as 0.32.

For the variant C29A C32G, the self-cleavage was found to be 0.155. With C29A C32U, the self-cleavage is 0.698. On to G28C G65C, for which the self-cleavage is 0.19. The figure for G28C G65A is 0.161; for G28C C35A it is 0.176; for G28C C35U it is 0.178. In the case of G28U A52U, the self-cleavage is 0.198. Consider G28U A52C, for which the self-cleavage stood at 0.132.

G28A G30C: the self-cleavage is 0.167. For G28C C33U the value was 0.165; for G28C C33A, 0.115; for G28A A60C, 0.197. For G28A A60G, the self-cleavage stood at 0.168. For the variant G28A A60U, the self-cleavage is 0.199. C27U U69C: the self-cleavage was 0.769. Regarding C27U U69G, the self-cleavage stood at 0.457.

For G28A G68U, the self-cleavage is 0.195.

In the case of G28A G68C, the self-cleavage came out at 0.268. Regarding G28A U67C, the self-cleavage worked out at 0.307. With G28A U67G, the self-cleavage was determined as 0.232.

With G28A U67A, the self-cleavage worked out at 0.202. The figure for C27U U53C is 0.169. In the case of G28C C45G, the self-cleavage came to 0.208.

Consider G28A G47C, for which the self-cleavage worked out at 0.212. As to G28A G47U, the self-cleavage was 0.262. G28U A51C: the self-cleavage came to 0.157.

For the variant G28U A51G, the self-cleavage came out at 0.196.

On to G28U G58A, for which the self-cleavage is 0.185. For G28U G58C the value was 0.177; for G28C A59U, 0.189. As for G28C A59C, the self-cleavage worked out at 0.16.

Consider G28C A59G, for which the self-cleavage worked out at 0.132. Turning to C29A U49C, the self-cleavage is 0.809. The figure for C29A U49G is 0.737; for C29A C54A it is 0.312; for C29A G41C it is 0.195. The figure for C29A G50U is 0.747; for C29A G50A it is 0.735; for G28U U55C it is 0.154. Turning to G28U U55A, the self-cleavage came to 0.203. The figure for C29A A52U is 0.671; for C29A A52G it is 0.77; for C29A A52C it is 0.64. For the variant C29A A60U, the self-cleavage was 0.257. Turning to G28U G48A, the self-cleavage is 0.255. For the variant G28U C54G, the self-cleavage was determined as 0.158.

In the case of G28U C54A, the self-cleavage is 0.144. With C29A A51U, the self-cleavage was determined as 0.646. The figure for C29A A51G is 0.706. Regarding C29A G48U, the self-cleavage is 0.755.

Turning to C29A G48A, the self-cleavage was 0.777. Take C29A G48C: the self-cleavage is 0.728. With G28A A59U, the self-cleavage came out at 0.198.

In the case of G28U C35A, the self-cleavage came to 0.172.

G28U C35G: the self-cleavage is 0.14. For G28C G47A the value was 0.187. Consider G28C G47C, for which the self-cleavage was 0.258. The figure for G28C G47U is 0.167. For G28U C57U the value was 0.213; for G28A G41C, 0.177; for G28A G58A, 0.189. With G28A G58U, the self-cleavage is 0.2.

On to G28A G58C, for which the self-cleavage turned out to be 0.231. Take G28A C45A: the self-cleavage came out at 0.184. As for G28A C45G, the self-cleavage stood at 0.196. The figure for G28U A40G is 0.232; for G28U A40C it is 0.225. For G28C C32A, the self-cleavage worked out at 0.181. In the case of G28C C32G, the self-cleavage was determined as 0.168. With G28C C32U, the self-cleavage was determined as 0.23. For G28C G58C the value was 0.158; for G28U U43C, 0.176. As for C29A C34G, the self-cleavage is 0.22.

For the variant C29A C34A, the self-cleavage is 0.334. With C29A C34U, the self-cleavage came to 0.702. For G28C U64A, the self-cleavage was 0.222. As for G28C U64G, the self-cleavage is 0.116. On to G28U U44G, for which the self-cleavage came out at 0.175. Turning to G28U G31C, the self-cleavage stood at 0.141.

Regarding G28U G31U, the self-cleavage amounted to 0.171. Regarding G28A G65C, the self-cleavage turned out to be 0.172.

For C29A G37U, the self-cleavage came out at 0.147. For C29A G37C, the self-cleavage was 0.186. For G28A C66G, the self-cleavage was 0.196.

For the variant G28C U61C, the self-cleavage was 0.134. With G28C U55G, the self-cleavage is 0.117. On to G28C U55C, for which the self-cleavage came to 0.162. Turning to G28U C45U, the self-cleavage came to 0.168. As to G28U C45A, the self-cleavage was determined as 0.189. Take G28A U53C: the self-cleavage is 0.154. G28A U53G: the self-cleavage was 0.203. For G28C C66U, the self-cleavage came to 0.211.

In the case of G28C C66A, the self-cleavage is 0.163.

On to G28C C66G, for which the self-cleavage amounted to 0.141.

Turning to G28C U43C, the self-cleavage came out at 0.141. For G28C U43G the value was 0.255.

As for G28C U43A, the self-cleavage came out at 0.109. On to G28A C34A, for which the self-cleavage was 0.218. As to C29A G30C, the self-cleavage is 0.205.

C29A G30U: the self-cleavage was 0.216. C29A G30A: the self-cleavage was 0.264. As for G28C U44A, the self-cleavage is 0.157. G28C U44C: the self-cleavage amounted to 0.223. G28C A52U: the self-cleavage is 0.197.

For C29A C63G, the self-cleavage came to 0.286. On to C29A C63A, for which the self-cleavage turned out to be 0.355.

With G28U A60C, the self-cleavage was 0.226.

For G28U A60G, the self-cleavage came out at 0.214.

Turning to G28A G56U, the self-cleavage amounted to 0.167. In the case of G28A G56A, the self-cleavage is 0.164.

In the case of G28A G56C, the self-cleavage amounted to 0.235. For G28A A51C, the self-cleavage was found to be 0.234. For G28A A51U, the self-cleavage is 0.183. Turning to G28U C66G, the self-cleavage was found to be 0.16.

As to G28U C66A, the self-cleavage came to 0.153.

G28U C66U: the self-cleavage is 0.168.

Take G28C C57G: the self-cleavage is 0.191. Turning to G28C C57A, the self-cleavage amounted to 0.207. Take G28C C57U: the self-cleavage turned out to be 0.23.

With C27U U62A, the self-cleavage was 0.217.

For the variant C29A U55A, the self-cleavage amounted to 0.273. C29A U55C: the self-cleavage was 0.38. For C29A C66U, the self-cleavage turned out to be 0.664. For C29A C66G, the self-cleavage was found to be 0.365. The figure for C29A C45U is 0.731; for G28U C29U it is 0.174. With G28U C29A, the self-cleavage amounted to 0.142.

In the case of G28U U61C, the self-cleavage was determined as 0.11. In the case of G28U U61G, the self-cleavage amounted to 0.221. As to C29A, the self-cleavage stood at 0.777.

As to G28C G31A, the self-cleavage was determined as 0.139. In the case of G28C G31C, the self-cleavage stood at 0.172. Take G28C G31U: the self-cleavage came out at 0.21. On to G28A U44G, for which the self-cleavage stood at 0.136. Turning to G28A U44A, the self-cleavage came to 0.195. As to G28A U44C, the self-cleavage came to 0.176. Take G28U A42G: the self-cleavage was found to be 0.112.

As to G28U A42U, the self-cleavage was 0.149.

Take G28U C32A: the self-cleavage was determined as 0.236. Regarding G28A A52G, the self-cleavage worked out at 0.234. The figure for G28C U36A is 0.162; for G28C U36C it is 0.147; for G28C U36G it is 0.189.

For the variant G28A C29G, the self-cleavage came to 0.117. With G28A C29U, the self-cleavage was found to be 0.177. For the variant G28A C29A, the self-cleavage was 0.143.

For the variant G28U C63U, the self-cleavage is 0.187. The figure for G28U C63A is 0.189. For the variant G28U C63G, the self-cleavage amounted to 0.254.
